Experimental findings from patent publication US20060275301A1 (Chugai, published 2006) are described below.

In the test the target is T1, β2 microglobulin (human, UniProt P61769 21-119).
T1 construct: β2M alone, as a denatured band on a Western blot; also called 12 kD molecule
The test can be described thus: Western blot.

T1 sequence (P61769 21-119 limits assumed): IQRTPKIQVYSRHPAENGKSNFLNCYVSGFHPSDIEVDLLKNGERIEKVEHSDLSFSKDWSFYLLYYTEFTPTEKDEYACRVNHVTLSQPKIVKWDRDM

B1: 2D7 antibody (antibody, V domains shown)
VH: QVQLQQSGPELVKPGASVKMSCKASGYTFTDYFIHWVKQRPGQGLEWIGWIFPGDDTTDYNEKFRGKTTLTADKSSSTAYILLSSLTSEDSAMYFCVRSDDFDYWGQGTTLTVSS
VL: QIVLTQSPAIMSASPGEKVTITCSASSSVSYMHWFQQKPGTFPKLWIYSTSNLASGVPTRFSGSGSGTSYSLTISRMEAEDAATYYCQQRTSYPPTFGSGTKLEIK
notes: CDR1 starts at 50 and 46, so these ranges probably include the leader, but no cleavage site is stated
On to B1, for which the binding result is “no binding”.
